Earlier results on two substances are cited in PMC4860950.

Some targets named below: CD2 (Homo sapiens) (UniProt P06729); CD244 (Homo sapiens) (UniProt Q9BZW8); CD2 (Mus musculus) (UniProt P08920).
Sequence of UniProt P08920 (P08920 23-203): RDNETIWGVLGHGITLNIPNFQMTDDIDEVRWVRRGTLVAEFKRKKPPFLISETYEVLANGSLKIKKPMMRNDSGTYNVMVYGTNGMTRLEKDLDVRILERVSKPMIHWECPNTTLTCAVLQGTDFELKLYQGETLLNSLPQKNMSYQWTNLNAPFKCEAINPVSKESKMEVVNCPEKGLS
Sequence of UniProt Q9BZW8 (Q9BZW8 22-229): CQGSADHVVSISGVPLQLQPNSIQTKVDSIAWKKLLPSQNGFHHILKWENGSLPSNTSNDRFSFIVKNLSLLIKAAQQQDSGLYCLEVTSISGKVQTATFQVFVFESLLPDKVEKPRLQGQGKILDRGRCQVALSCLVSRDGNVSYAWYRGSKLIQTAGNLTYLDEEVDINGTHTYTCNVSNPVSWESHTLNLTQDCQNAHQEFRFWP
Sequence of UniProt P06729 (P06729 25-209): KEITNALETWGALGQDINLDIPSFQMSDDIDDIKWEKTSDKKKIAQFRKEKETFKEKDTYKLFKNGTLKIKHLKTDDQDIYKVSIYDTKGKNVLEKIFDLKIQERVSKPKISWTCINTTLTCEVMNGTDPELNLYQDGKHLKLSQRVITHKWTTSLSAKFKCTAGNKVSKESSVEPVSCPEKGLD

On to CD48 (from UniProt P09326), for which the Kd was 100 µM with CD2 (Homo sapiens) and 8 µM with CD244 (Homo sapiens).
As for CD48 (from UniProt P18181), the Kd with CD2 (Mus musculus) was 90 µM.
